{
  "source": "patent US20110130328A1",
  "about": "(THE ADMINISTRATORS OF THE TULANE EDUCATIONAL FUND, published 2011)",
  "binders": {"B1": {"name": "peptide 69 (18 mer of E1 of HCV strain H77) (peptide)", "peptide": "QDCNCSIYPGHITGHRMA", "modifications": "not fully specified; cysteine pairing not given here"}, "B2": {"name": "peptide 79 (18 mer of E1 of HCV strain H77) (peptide)", "peptide": "LVVLLLFAGVDAETHVTG"}, "B3": {"name": "peptide 76 (18 mer of E1 of HCV strain H77) (peptide)", "peptide": "AHWGVLAGIKYFSMVGNW"}, "B4": {"name": "peptide 66 (18 mer of E1 of HCV strain H77) (peptide)", "peptide": "CGSVFLVGQLFTFSPRHH"}, "B5": {"name": "peptide 67 (18 mer of E1 of HCV strain H77) (peptide)", "peptide": "GQLFTFSPRHHWTTQDCN"}, "B6": {"name": "peptide 77 (18 mer of E1 of HCV strain H77) (peptide)", "peptide": "GIKYFSMVGNWAKVLVVL"}, "B7": {"name": "peptide 75 (18 mer of E1 of HCV strain H77) (peptide)", "peptide": "IMDMIAGAHWGVLAGIKY"}, "B8": {"name": "peptide 58 (18 mer of E1 of HCV strain H77) (peptide)", "peptide": "GCVPCVREGNASRCWVAV"}, "B9": {"name": "peptide 68 (18 mer of E1 of HCV strain H77) (peptide)", "peptide": "PRHHWTTQDCNCSIYPGH"}, "B10": {"name": "peptide 55 (18 mer of E1 of HCV strain H77) (peptide)", "peptide": "TNDCPNSSVVYEAADAIL"}, "B11": {"name": "peptide 74 (18 mer of E1 of HCV strain H77) (peptide)", "peptide": "LLRIPQAIMDMIAGAHWG"}, "B12": {"name": "peptide 53 (18 mer of E1 of HCV strain H77) (peptide)", "peptide": "SAYQVRNSSGLYHVTNDC"}, "B13": {"name": "peptide 72 (18 mer of E1 of HCV strain H77) (peptide)", "peptide": "MMNWSPTAALVVAQLLRI"}, "B14": {"name": "peptide 62 (18 mer of E1 of HCV strain H77) (peptide)", "peptide": "LPTTQLRRHIDLLVGSAT"}, "B15": {"name": "peptide 57 (18 mer of E1 of HCV strain H77) (peptide)", "peptide": "DAILHTPGCVPCVREGNA"}, "B16": {"name": "peptide 63 (18 mer of E1 of HCV strain H77) (peptide)", "peptide": "RHIDLLVGSATLCSALYV"}, "B17": {"name": "peptide 64 (18 mer of E1 of HCV strain H77) (peptide)", "peptide": "GSATLCSALYVGDLCGSV"}, "B18": {"name": "peptide 78 (18 mer of E1 of HCV strain H77) (peptide)", "peptide": "VGNWAKVLVVLLLFAGVD"}, "B19": {"name": "peptide 52 (18 mer of E1 of HCV strain H77) (peptide)", "peptide": "SCLTVPASAYQVRNSSGL"}, "B20": {"name": "peptide 61 (18 mer of E1 of HCV strain H77) (peptide)", "peptide": "VATRDGKLPTTQLRRHID"}, "B21": {"name": "peptide 56 (18 mer of E1 of HCV strain H77) (peptide)", "peptide": "SIVYEAADAILHTPGCVP"}, "B22": {"name": "peptide 54 (18 mer of E1 of HCV strain H77) (peptide)", "peptide": "SSGLYHVTNDCPNSSIVY"}, "B23": {"name": "peptide 65 (18 mer of E1 of HCV strain H77) (peptide)", "peptide": "ALYVGDLCGSVFLVGQLF", "modifications": "not fully specified"}, "B24": {"name": "peptide 73 (18 mer of E1 of HCV strain H77) (peptide)", "peptide": "AALVVAQLLRIPQAIMDM"}},
  "note": "No end group written: not given here.",
  "data": [
    {"target": "envelope glycoproteins E1 and E2 of the H77 strain of HCV, on HIV-core pseudotype virions (hepatitis C virus strain H77, UniProt P27958)", "assay": "cell-based or functional assay", "units": {"Percent Inhibition of infection by the H77-E1E2 pseudotype (luciferase), peptide marked by asterisk: actual concentration 10 µM or less": "%", "Percent Inhibition of infection by the H77-E1E2 pseudotype (luciferase), peptide at about 25 µM": "%"}, "values": [
      {"binder": "B1", "Percent Inhibition of infection by the H77-E1E2 pseudotype (luciferase), peptide marked by asterisk: actual concentration 10 µM or less": -73.1},
      {"binder": "B2", "Percent Inhibition of infection by the H77-E1E2 pseudotype (luciferase), peptide at about 25 µM": 10.6},
      {"binder": "B3", "Percent Inhibition of infection by the H77-E1E2 pseudotype (luciferase), peptide at about 25 µM": 15.3},
      {"binder": "B4", "Percent Inhibition of infection by the H77-E1E2 pseudotype (luciferase), peptide at about 25 µM": 79.5},
      {"binder": "B5", "Percent Inhibition of infection by the H77-E1E2 pseudotype (luciferase), peptide at about 25 µM": 43.2},
      {"binder": "B6", "Percent Inhibition of infection by the H77-E1E2 pseudotype (luciferase), peptide at about 25 µM": 50.4},
      {"binder": "B7", "Percent Inhibition of infection by the H77-E1E2 pseudotype (luciferase), peptide at about 25 µM": 0.32},
      {"binder": "B8", "Percent Inhibition of infection by the H77-E1E2 pseudotype (luciferase), peptide at about 25 µM": -4.42},
      {"binder": "B9", "Percent Inhibition of infection by the H77-E1E2 pseudotype (luciferase), peptide at about 25 µM": 31.3},
      {"binder": "B10", "Percent Inhibition of infection by the H77-E1E2 pseudotype (luciferase), peptide at about 25 µM": 1.12},
      {"binder": "B11", "Percent Inhibition of infection by the H77-E1E2 pseudotype (luciferase), peptide at about 25 µM": 71.1},
      {"binder": "B12", "Percent Inhibition of infection by the H77-E1E2 pseudotype (luciferase), peptide at about 25 µM": 0.23},
      {"binder": "B13", "Percent Inhibition of infection by the H77-E1E2 pseudotype (luciferase), peptide at about 25 µM": 33.4},
      {"binder": "B14", "Percent Inhibition of infection by the H77-E1E2 pseudotype (luciferase), peptide at about 25 µM": -1.96},
      {"binder": "B15", "Percent Inhibition of infection by the H77-E1E2 pseudotype (luciferase), peptide at about 25 µM": -49.4},
      {"binder": "B16", "Percent Inhibition of infection by the H77-E1E2 pseudotype (luciferase), peptide at about 25 µM": 49.1},
      {"binder": "B17", "Percent Inhibition of infection by the H77-E1E2 pseudotype (luciferase), peptide at about 25 µM": 0.55},
      {"binder": "B18", "Percent Inhibition of infection by the H77-E1E2 pseudotype (luciferase), peptide marked by asterisk: actual concentration 10 µM or less": -21.1},
      {"binder": "B19", "Percent Inhibition of infection by the H77-E1E2 pseudotype (luciferase), peptide at about 25 µM": -17.2},
      {"binder": "B20", "Percent Inhibition of infection by the H77-E1E2 pseudotype (luciferase), peptide at about 25 µM": -30.8},
      {"binder": "B21", "Percent Inhibition of infection by the H77-E1E2 pseudotype (luciferase), peptide at about 25 µM": 42.3},
      {"binder": "B22", "Percent Inhibition of infection by the H77-E1E2 pseudotype (luciferase), peptide at about 25 µM": 99.9},
      {"binder": "B23", "Percent Inhibition of infection by the H77-E1E2 pseudotype (luciferase), peptide marked by asterisk: actual concentration 10 µM or less": 22.9},
      {"binder": "B24", "Percent Inhibition of infection by the H77-E1E2 pseudotype (luciferase), peptide at about 25 µM": 11.5}
    ]}
  ]
}
